Results published in publication PMC5870375.

Biological target: oligomeric amyloid-β 1–42 (UniProt P05067)
Experiment: ELISA; solid phase binding assay: 96-well plate coated with 100 nM oAβ1-42 in PBS overnight at 4 °C, blocked with 4% BSA; purified Fc or sTREM2-Fc proteins in PBST with 0.5% BSA, 30 min at 37 °C; detected with biotinylated anti-Fc antibody, avidin-HRP, TMB, read at 620 nm

Kd: 86.5 nM
Substance: soluble TREM2-Fc (human TREM2 extracellular domain, amino acids 1–171, fused to the Fc region of human IgG1) (from UniProt Q9NZC2 19-171) (Fc fusion)
